# Laboratory results taken from IntAct's records for PubMed 31262713.
# B1: Protein Niban 2 (Homo sapiens), Q96TA1 (parent)
# chain: MGDVLSTHLDDARRQHIAEKTGKILTEFLQFYEDQYGVALFNSMRHEIEGTGLPQAQLLWRKVPLDERIVFSGNLFQHQEDSKKWRNRFSLVPHNYGLVLYENKAAYERQVPPRAVINSAGYKILTSVDQYLELIGNSLPGTTAKSGSAPILKCPTQFPLILWHPYARHYYFCMMTEAEQDKWQAVLQDCIRHCNNGIPEDSKVEGPAFTDAIRMYRQSKELYGTWEMLCGNEVQILSNLVMEELGPELKAELGPRLKGKPQERQRQWIQISDAVYHMVYEQAKARFEEVLSKVQQVQPAMQAVIRTDMDQIITSKEHLASKIRAFILPKAEVCVRNHVQPYIPSILEALMVPTSQGFTEVRDVFFKEVTDMNLNVINEGGIDKLGEYMEKLSRLAYHPLKMQSCYEKMESLRLDGLQQRFDVSSTSVFKQRAQIHMREQMDNAVYTFETLLHQELGKGPTKEELCKSIQRVLERVLKKYDYDSSSVRKRFFREALLQISIPFLLKKLAPTCKSELPRFQELIFEDFARFILVENTYEEVVLQTVMKDILQAVKEAAVQRKHNLYRDSMVMHNSDPNLHLLAEGAPIDWGEEYSNSGGGGSPSPSTPESATLSEKRRRAKQVVSVVQDEEVGLPFEASPESPPPASPDGVTEIRGLLAQGLRPESPPPAGPLLNGAPAGESPQPKAAPEASSPPASPLQHLLPGKAVDLGPPKPSDQETGEQVSSPSSHPALHTTTEDSAGVQTEF
# Columns and labels:
# [1] = variants of: B1; details: with keap1_human KEAP1, Q14145
# Chain of keap1_human KEAP1, Q14145 (Q14145 whole entry): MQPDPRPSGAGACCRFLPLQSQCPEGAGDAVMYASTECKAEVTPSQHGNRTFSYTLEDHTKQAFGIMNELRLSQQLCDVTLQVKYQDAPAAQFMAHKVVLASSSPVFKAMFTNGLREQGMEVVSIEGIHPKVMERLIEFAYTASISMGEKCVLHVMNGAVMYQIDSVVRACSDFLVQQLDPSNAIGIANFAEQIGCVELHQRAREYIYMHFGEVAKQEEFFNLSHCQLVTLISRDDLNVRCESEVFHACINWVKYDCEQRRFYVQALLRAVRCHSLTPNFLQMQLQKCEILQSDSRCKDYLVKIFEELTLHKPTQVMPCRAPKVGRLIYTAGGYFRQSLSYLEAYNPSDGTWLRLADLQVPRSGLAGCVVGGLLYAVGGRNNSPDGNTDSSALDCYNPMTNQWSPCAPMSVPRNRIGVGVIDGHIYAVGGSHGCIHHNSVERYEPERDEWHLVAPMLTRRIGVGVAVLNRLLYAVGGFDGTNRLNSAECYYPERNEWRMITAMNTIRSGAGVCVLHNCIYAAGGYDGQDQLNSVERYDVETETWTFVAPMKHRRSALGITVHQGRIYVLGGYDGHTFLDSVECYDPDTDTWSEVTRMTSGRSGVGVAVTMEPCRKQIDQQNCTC
# [2] = variants of: B1; details: with keap1_human KEAP1, Q14145; remark: listed apart in the source
Variant,effect of a mutation on the interaction [1],effect of a mutation on the interaction [2]
G710A;E718A;T719A,disrupting interaction strength,disrupting interaction strength
E718A;T719A,disrupting interaction strength,
G710A,with no effect,disrupting interaction strength
